Laboratory results as given in US20210122804A1, “PEPTIDE LIGANDS FOR BINDING TO CD38” (BicycleTx Limited, priority 2018, published 2021).
*1 amine or outer side, *2 acyl side, *3 side chain or, on linkers, in order; H or OH if unused. Bridges are numbered along the chain shown (N, C = ends). Where no end group is shown, it is not given here. TATA = O=C(CC[*:1])N1CN(C(=O)CC[*:2])CN(C(=O)CC[*:3])C1; TBMB = c1c(C[*:1])cc(C[*:3])cc1C[*:2]

T1: human CD38 (Homo sapiens, UniProt P28907)
T1 sequence (P28907 1-300): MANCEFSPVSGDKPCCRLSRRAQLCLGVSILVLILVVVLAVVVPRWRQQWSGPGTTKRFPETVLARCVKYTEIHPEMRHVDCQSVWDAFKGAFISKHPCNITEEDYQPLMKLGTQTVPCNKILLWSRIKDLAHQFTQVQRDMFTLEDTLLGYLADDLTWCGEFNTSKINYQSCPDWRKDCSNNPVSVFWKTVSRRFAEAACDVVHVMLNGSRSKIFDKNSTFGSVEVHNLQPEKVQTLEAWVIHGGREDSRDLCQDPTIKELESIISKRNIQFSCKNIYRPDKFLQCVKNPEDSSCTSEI

T2: human CD38 (human, UniProt P28907 43-300, limits assumed)
T2 construct: construct used is not described; also called hCD38
T2 sequence (looked up): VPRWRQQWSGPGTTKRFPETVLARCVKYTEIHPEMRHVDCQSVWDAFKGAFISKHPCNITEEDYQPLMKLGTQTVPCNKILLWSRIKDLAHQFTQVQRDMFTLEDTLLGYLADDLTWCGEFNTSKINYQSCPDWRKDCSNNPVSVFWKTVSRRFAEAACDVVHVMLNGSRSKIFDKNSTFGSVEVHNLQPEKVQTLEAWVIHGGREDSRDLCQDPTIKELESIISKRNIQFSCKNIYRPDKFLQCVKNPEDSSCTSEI


Assays:
human CD38 [1] = molecular target: T1, human CD38; assay: CD38 Competition Binding Assay (fluorescence polarisation); details: compared with all-thioether Reference Example 1
Description: CD38 Competition Binding Assay Affinity of various bicycle peptide compounds for human CD38 (Ki) was determined using a fluorescence polarisation assay, using the method reported by Lea et al (Expert Opin Drug Discov. 2011 6(1): 17-3) and using the following fluorescently labelled peptides […]-Sar6-K(F1) for TBMB derivatives and […]-Sar6-K(F1) for TATA derivatives where Fl is a fluorescein molecule.

human CD38 [2] = molecular target: T2, human CD38; assay: fluorescence polarisation competition; tracer m11
human CD38 [3] = molecular target: T2, human CD38; assay: fluorescence polarisation competition; tracer m10

Ki (human CD38 [2]) [nM] | Molecule | other results
– | [Ac]ACVPCADFPIWYC [BCY00009245] | affinity to CD38 (in words) (human CD38 [1]): high affinity
316 | ACYWNPFTACYSCTEN (linker 2-10-13 via TATA (inferred), bicyclic; also called 66-50-19-T02-N001) [66-50-19-T002-N001] | –
– | ACFTLDGECFLLGENCA (linker 2-9-16 via TBMB, bicyclic) [66-08-52-N001] | Ki (human CD38 [3]): 562 nM
90 | ACYWNPFTACWSCEND (linker 2-10-13 via TATA (inferred), bicyclic) [66-50-16-T01-N001] | –
